The target in the assay is T1, MBP-EBF1 (Arabidopsis thaliana, UniProt Q9SKK0 1-628).
T1 construct: EBF1, Arabidopsis thaliana, AT2G25490; source: purified using amylose resin
T1 sequence (looked up): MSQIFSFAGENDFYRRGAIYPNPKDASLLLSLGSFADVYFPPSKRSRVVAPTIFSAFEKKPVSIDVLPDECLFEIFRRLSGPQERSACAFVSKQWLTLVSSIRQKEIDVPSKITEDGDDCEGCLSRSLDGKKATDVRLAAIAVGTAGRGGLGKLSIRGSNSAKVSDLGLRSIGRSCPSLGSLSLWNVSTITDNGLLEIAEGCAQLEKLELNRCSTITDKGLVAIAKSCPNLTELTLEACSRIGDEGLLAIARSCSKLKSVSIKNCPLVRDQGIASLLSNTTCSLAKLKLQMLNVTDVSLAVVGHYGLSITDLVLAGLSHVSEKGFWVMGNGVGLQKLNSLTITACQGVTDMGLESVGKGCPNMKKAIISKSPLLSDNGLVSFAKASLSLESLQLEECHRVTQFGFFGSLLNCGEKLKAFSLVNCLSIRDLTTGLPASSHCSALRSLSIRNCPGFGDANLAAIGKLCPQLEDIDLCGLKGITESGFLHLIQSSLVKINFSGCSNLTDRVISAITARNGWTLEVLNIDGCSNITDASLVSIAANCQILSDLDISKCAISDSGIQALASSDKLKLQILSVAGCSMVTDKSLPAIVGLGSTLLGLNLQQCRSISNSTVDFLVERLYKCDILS
As to the kind of experiment: pull-down; glutathione beads with 1 µg GST-BZR1 incubated with 1 µg MBP or MBP-EBF1; 20 mM Tris-HCl pH 7.5, 100 mM NaCl, 1 mM EDTA; washed 10 times with 300 mM NaCl, 0.5% Triton X-100; immunoblot with anti-MBP. The note with it: both partners purified. A general note: In western blotting, separated proteins are transferred to a membrane and probed.

B1: GST-BZR1 (natural protein, Arabidopsis thaliana, UniProt Q8S307 1-336, looked up)
chain: MTSDGATSTSAAAAAAAAAAARRKPSWRERENNRRRERRRRAVAAKIYTGLRAQGDYNLPKHCDNNEVLKALCVEAGWVVEEDGTTYRKGCKPLPGEIAGTSSRVTPYSSQNQSPLSSAFQSPIPSYQVSPSSSSFPSPSRGEPNNNMSSTFFPFLRNGGIPSSLPSLRISNSCPVTPPVSSPTSKNPKPLPNWESIAKQSMAIAKQSMASFNYPFYAVSAPASPTHRHQFHTPATIPECDESDSSTVDSGHWISFQKFAQQQPFSASMVPTSPTFNLVKPAPQQMSPNTAAFQEIGQSSEFKFENSQVKPWEGERIHDVGMEDLELTLGNGKARG
notes: BZR1, Arabidopsis thaliana, At1G75080; also called glutathione S-transferase (GST) fusion protein GST-BZR1; source: bacteria, purified (glutathione beads)
B1: the binding result was “binds”.

The values are drawn from PMC9785488, “EBF1 Negatively Regulates Brassinosteroid-Induced Apical Hook Development and Cell Elongation through Promoting BZR1 Degradation” (International Journal of Molecular Sciences, 2022).
